Holding throughout (assay type): biochemical, Arabidopsis thaliana
Substrate in series [1]: C[S+](CC[C@H](N)C(=O)O)C[C@H]1O[C@@H](n2cnc3c(N)ncnc32)[C@H](O)[C@@H]1O
The experiment in a line: HPLC of dansylated N-methylputrescine, fluorimetric. The note with it: PMT activity, co-substrate putrescine, 20 mM HEPES pH 8.0, 37°C, 2 mM DTT, 1 mM ascorbic acid. The text has this: (§1) HPLC of dansylated N-methylputrescine, fluorimetric on AtSPDS1 (spermidine synthase 1)

Substrate in series [2]: NCCCCN
Described as above. The note with it: PMT activity, co-substrate SAM, 20 mM HEPES pH 8.0, 37°C, 2 mM DTT, 1 mM ascorbic acid.
Text: as §1

Substrate in series [3]: C[S+](CCCN)C[C@H]1O[C@@H](n2cnc3c(N)ncnc32)[C@H](O)[C@@H]1O
The experiment in a line: HPLC of dansylated spermidine, fluorimetric. Conditions: SPDS activity, co-substrate putrescine, 20 mM HEPES pH 8.0, 37°C, 2 mM DTT, 1 mM ascorbic acid. The text has this:
(§2) HPLC of dansylated spermidine, fluorimetric on AtSPDS1 (spermidine synthase 1)

Substrate in series [4]: NCCCCN
As to the kind of experiment: HPLC of dansylated spermidine, fluorimetric. Conditions: SPDS activity, co-substrate dcSAM, 20 mM HEPES pH 8.0, 37°C, 2 mM DTT, 1 mM ascorbic acid.
Text: as §2

Positions count from the first letter of the chain named. Names may count otherwise.

B1: AtSPDS1 (spermidine synthase 1) (Arabidopsis thaliana; D131I/Q107T/V134T) (protein)
chain: MDAKETSATDLKRPREEDDNGGAATMETENGDQKKEPACFSTVIPGWFSEMSPMWPGEAHSLKVEKVLFQGKSDYQDVIVFQSATYGKVLVLDGVIQLTERDECAYTEMITHLPLCSIPNPKKVLVIGGGIGGTLREVARHASIEQIDMCEIDKMVVDVSKQFFPDVAIGYEDPRVNLVIGDGVAFLKNAAEGSYDAVIVDSSDPIGPAKELFEKPFFQSVARALRPGGVVCTQAESLWLHMDIIEDIVSNCREIFKGSVNYAWTSVPTYPSGVIGFMLCSTEGPDVDFKHPLNPIDESSSKSNGPLKFYNAEIHSAAFCLPSFAKKVIESKAN
notes: pQE-30, N-terminal His tag, E. coli M15[pREP4], HisTrap purified
For the protein B1, in series [1], the Km (in general, the substrate concentration at which the rate is half of its maximum) came to 12 ± 0.60 µM and the kcat (usually the maximal rate divided by the concentration of active sites) was found to be 0.081 s⁻¹. Besides, in series [2], the Km is 32 ± 1.88 µM and the kcat came out at 0.081 s⁻¹.

B2: AtSPDS1 (spermidine synthase 1) (Arabidopsis thaliana) (protein)
chain: B1 chain with T107Q, I131D, T134V
notes: as for B1
Regarding B2, in series [3], the Km worked out at 18 ± 1.23 µM and the kcat came to 0.722 s⁻¹. Besides, in series [4], the Km stood at 220 ± 18.44 µM and the kcat was 0.722 s⁻¹.

B3: AtSPDS1 (spermidine synthase 1) (Arabidopsis thaliana; D131I) (protein)
chain: B1 chain with T107Q, T134V
notes: as for B1
In the case of B3, in series [1], the Km stood at 28 ± 0.77 µM and the kcat came to 0.00448 s⁻¹. In addition, in series [2], the Km was 56 ± 4.45 µM and the kcat was 0.00448 s⁻¹.

Source of the values: PMC3725402.
